From article PMC7048932, “Examining sterically demanding lysine analogs for histone lysine methyltransferase catalysis” (Scientific Reports, 2020)

Experiments:
[1] = target: G9a (human) (UniProt Q96KQ7)
[2] = target: GLP (human) (UniProt Q9H9B1)
[3] = target: T1, SETD7 (human) (UniProt Q8WTS6)
T1 sequence: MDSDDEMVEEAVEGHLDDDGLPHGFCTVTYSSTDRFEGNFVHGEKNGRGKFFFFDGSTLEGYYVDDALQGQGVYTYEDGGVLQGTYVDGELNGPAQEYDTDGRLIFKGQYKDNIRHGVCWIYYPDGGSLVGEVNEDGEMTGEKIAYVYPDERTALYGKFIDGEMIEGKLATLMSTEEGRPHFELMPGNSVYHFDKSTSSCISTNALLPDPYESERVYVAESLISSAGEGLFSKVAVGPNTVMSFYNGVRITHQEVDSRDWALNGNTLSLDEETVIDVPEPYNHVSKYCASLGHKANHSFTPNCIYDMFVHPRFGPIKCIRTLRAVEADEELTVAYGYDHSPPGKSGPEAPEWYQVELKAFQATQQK

Sequence of G9a (human) (Q96KQ7 whole entry): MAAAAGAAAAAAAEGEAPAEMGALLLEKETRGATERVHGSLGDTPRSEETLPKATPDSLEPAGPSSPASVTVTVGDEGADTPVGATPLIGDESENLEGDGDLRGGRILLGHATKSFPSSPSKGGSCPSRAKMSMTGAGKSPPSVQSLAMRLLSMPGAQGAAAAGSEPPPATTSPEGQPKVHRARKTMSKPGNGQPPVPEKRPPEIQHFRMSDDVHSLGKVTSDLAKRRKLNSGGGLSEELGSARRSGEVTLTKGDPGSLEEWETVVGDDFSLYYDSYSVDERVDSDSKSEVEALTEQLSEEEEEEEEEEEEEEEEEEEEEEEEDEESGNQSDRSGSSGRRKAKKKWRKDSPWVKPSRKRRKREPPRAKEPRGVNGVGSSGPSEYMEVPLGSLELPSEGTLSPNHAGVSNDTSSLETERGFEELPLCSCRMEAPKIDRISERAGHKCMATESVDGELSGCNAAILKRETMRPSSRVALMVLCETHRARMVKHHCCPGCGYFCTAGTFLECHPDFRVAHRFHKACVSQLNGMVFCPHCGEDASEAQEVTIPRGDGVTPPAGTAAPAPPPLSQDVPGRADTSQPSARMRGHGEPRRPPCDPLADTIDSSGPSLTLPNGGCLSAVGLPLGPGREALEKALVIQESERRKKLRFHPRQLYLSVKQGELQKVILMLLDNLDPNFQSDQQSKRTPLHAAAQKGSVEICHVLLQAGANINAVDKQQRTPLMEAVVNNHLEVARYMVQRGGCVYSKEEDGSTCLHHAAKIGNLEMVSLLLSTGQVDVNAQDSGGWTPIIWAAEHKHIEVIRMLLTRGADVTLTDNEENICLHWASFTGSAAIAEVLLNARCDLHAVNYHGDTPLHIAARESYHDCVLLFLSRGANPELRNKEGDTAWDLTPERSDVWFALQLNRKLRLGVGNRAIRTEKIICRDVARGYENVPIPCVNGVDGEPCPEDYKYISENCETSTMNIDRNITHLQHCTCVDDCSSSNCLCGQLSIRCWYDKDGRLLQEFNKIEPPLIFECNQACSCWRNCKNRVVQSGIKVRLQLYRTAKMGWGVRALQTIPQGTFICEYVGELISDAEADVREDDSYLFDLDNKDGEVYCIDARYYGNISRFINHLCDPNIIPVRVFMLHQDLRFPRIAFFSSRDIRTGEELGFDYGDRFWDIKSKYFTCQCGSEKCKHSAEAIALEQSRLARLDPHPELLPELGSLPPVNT
Sequence of GLP (human) (Q9H9B1 whole entry): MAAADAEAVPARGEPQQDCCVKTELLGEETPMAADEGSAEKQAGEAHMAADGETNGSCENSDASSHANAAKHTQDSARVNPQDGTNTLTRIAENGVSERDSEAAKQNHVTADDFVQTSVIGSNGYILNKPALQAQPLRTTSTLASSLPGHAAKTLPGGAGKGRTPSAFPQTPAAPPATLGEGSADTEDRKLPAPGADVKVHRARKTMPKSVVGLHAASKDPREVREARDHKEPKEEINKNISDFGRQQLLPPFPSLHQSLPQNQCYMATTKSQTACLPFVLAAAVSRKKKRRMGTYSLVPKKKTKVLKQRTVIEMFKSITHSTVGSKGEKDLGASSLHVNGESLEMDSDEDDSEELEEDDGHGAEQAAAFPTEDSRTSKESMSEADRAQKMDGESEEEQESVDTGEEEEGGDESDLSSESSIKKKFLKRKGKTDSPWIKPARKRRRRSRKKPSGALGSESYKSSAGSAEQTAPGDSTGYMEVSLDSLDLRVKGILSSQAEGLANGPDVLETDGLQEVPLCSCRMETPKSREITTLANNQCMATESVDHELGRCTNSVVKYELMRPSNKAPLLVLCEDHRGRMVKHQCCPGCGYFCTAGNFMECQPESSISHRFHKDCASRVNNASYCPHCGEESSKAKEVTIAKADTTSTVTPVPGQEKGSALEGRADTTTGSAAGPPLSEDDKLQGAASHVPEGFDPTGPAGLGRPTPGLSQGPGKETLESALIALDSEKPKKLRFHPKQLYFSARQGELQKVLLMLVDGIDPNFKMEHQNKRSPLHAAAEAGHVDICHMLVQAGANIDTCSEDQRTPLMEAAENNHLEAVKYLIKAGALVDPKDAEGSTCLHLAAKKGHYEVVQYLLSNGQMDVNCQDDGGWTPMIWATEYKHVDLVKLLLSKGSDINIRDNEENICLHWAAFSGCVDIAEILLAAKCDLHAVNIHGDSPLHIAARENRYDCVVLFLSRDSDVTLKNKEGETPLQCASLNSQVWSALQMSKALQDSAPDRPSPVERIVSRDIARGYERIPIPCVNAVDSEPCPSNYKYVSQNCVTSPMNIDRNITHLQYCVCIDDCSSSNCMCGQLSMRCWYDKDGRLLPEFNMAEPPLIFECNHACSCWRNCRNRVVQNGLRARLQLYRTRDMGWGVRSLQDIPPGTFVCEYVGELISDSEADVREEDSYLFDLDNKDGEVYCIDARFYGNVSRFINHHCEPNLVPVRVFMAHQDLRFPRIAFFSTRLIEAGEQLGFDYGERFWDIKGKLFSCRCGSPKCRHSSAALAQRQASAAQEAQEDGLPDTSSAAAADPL

IC50 of inhibition of G9a (100 nM) methylation of a 21-mer H3 peptide (residues 1–21, 5 µM) with SAM (20 µM), MALDI-TOF MS [1]	IC50 of inhibition of GLP (100 nM) methylation of a 21-mer H3 peptide (residues 1–21, 5 µM) with SAM (20 µM), MALDI-TOF MS [2]	IC50 of inhibition of SETD7 (100 nM) methylation of a 21-mer H3 peptide (residues 1–21, 5 µM) with SAM (20 µM), MALDI-TOF MS [3]	percent inhibition of SETD7 (100 nM) methyltransferase activity at 100 µM peptide, MALDI-TOF MS [3]	Substance
–	–	> 100 µM	–	H3K4 analog histone peptide with benzylamine (Kba) at position 4
–	–	> 100 µM	–	H3K4 analog histone peptide with meta-aminophenylalanine (F3a) at position 4
–	–	> 100 µM	11%	H3F4a4 histone peptide
> 100 µM	> 100 µM	–	–	H3AP9 histone peptide

The remaining lines, values behind:

Substance	IC50 of inhibition of G9a (100 nM) methylation of a 21-mer H3 peptide (residues 1–21, 5 µM) with SAM (20 µM), MALDI-TOF MS [1]	IC50 of inhibition of GLP (100 nM) methylation of a 21-mer H3 peptide (residues 1–21, 5 µM) with SAM (20 µM), MALDI-TOF MS [2]	IC50 of inhibition of SETD7 (100 nM) methylation of a 21-mer H3 peptide (residues 1–21, 5 µM) with SAM (20 µM), MALDI-TOF MS [3]	percent inhibition of SETD7 (100 nM) methyltransferase activity at 100 µM peptide, MALDI-TOF MS [3]
H3F4a9 histone peptide	> 100 µM	> 100 µM	–	–
H3F3a9 histone peptide	–	26 µM	–	–
H3Kba9 histone peptide	> 100 µM	> 100 µM	–	–
H3K4 analog histone peptide with pyridylalanine (AP) at position 4	–	–	> 100 µM	–
